# Measured values reported in the RNAGym collection of RNA variant scans (doi:10.1093/molbev/msab373).
# B1: Azoarcus group I ribozyme (parent)
# chain: GUGCCUUGCGCCGGGAAACCACGCAAGGGAUGGUGUCAAAUUCGGCGAAACCUAAGCGCCCGCCCGGGCGUAUGGCAACGCCGAGCCAAGCUUCGGCGCCUGCGCCGAUGAAGGUGUAGAGACUAGACGGCACCCACCUAAGGCAAACGCUAUGGUGAAGGCAUAGUCCAGGGAGUGGCGAAAGUCACACAAACCGG
# Variants of: B1
# Experiment: reverse-splicing fitness (ratio to wild type); higher = more active; in vitro selection; Mg2+ level not given
# Method in brief: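 An in vitro group I ribozyme library with randomized positions was T7-transcribed and gel-purified. In triplicate, 10 pmol RNA in EPPS pH 7.5 was reacted with 50 pmoles of a 30-nt RNA substrate for 1 h at 37 °C across several added MgCl2 levels (1–48 mM), then stopped with EDTA. Products were reverse transcribed from a substrate-complementary primer, PCR-amplified and sequenced (HiSeq 4000). Fitness is a variant's read proportion after selection over that before, normalised to wild type.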
row,Variant,reverse-splicing fitness
1,GUGCCUUGCGCCGGGAAACCACGCAAGGGAUGGUGUCAAAUUCGGCGAAACCUAAGCGCCCGCCCGGGCGUAUGGCAACGCAGAGCCAAGCUUCGGCGCCUGCGCCGAUGCAGGUGUAGAGACUAGACGGCACCCACCUAAGGCAAACGCUAUGGUGAAGGCAUAGUCUAGGGAGGGGCGAAAGUCACACAAACCGG [C82A A111C C169U U176G],0.00856
2,GUGCCUUGCGCCGGGAAACCACGCAAGGGAUGGUGUCAAAUUCGGCGAAACCUAAGCGCCCGCCCGGGCGUAUGGCAACGCAGAGCCAAGCUUCGGCGCCUGCGCCGAUGCAGGUGUAGAGACUAGACGGCACCCACCUAAGGCAAACGCUAUGGUGAAGGCAUAGUCUAGGGAGCGGCGAAAGUCACACAAACCGG [C82A A111C C169U U176C],0.0187
3,GUGCCUUGCGCCGGGAAACCACGCAAGGGAUGGUGUCAAAUUCGGCGAAACCUAAGCGCCCGCCCGGGCGUAUGGCAACGCAGAGCCAAGCUUCGGCGCCUGCGCCGAUGCAGGUGUAGAGACUAGACGGCACCCACCUAAGGCAAACGCUAUGGUGAAGGCAUAGUCUAGGGAGAGGCGAAAGUCACACAAACCGG [C82A A111C C169U U176A],0.0162
4,GUGCCUUGCGCCGGGAAACCACGCAAGGGAUGGUGUCAAAUUCGGCGAAACCUAAGCGCCCGCCCGGGCGUAUGGCAACGCAGAGCCAAGCUUCGGCGCCUGCGCCGAUGGAGGUGUAGCGACUAGACGGCACCCACCUAAGGCCAACGCUAUGGUGAAGGCAUAGUCCAGGGAGUGGCGAAAGUCACACAAACCGG [C82A A111G A120C A145C],0.0362
5,GUGCCUUGCGCCGGGAAACCACGCAAGGGAUGGUGUCAAAUUCGGCGAAACCUAAGCGCCCGCCCGGGCGUAUGGCAACGCAGAGCCAAGCUUCGGCGCCUGCGCCGAUGGAGGUGUAGAGACUAGACGGCACCCACCUAAGGCAAACGCUAUGGUGAAGGCAUAGUCCAGGGAGUGGCGAAAGUCACACAAACCGG [C82A A111G],0.435
6,GUGCCUUGCGCCGGGAAACCACGCAAGGGAUGGUGUCAAAUUCGGCGAAACCUAAGCGCCCGCCCGGGCGUAUGGCAACGCAGAGCCAAGCUUCGGCGCCUGCGCCGAUGGAGGUGUAGCGACUAGACGGCACCCACCUAAGGCCAACGAUAUGGUGAAGGCAUAGUCAAGGGAGUGGCGAAAGUCACACAAACCGG [C82A A111G A120C A145C C150A C169A],0.00989
7,GUGCCUUGCGCCGGGAAACCACGCAAGGGAUGGUGUCAAAUUCGGCGAAACCUAAGCGCCCGCCCGGGCGUAUGGCAACGCAGAGCCAAGCUUCGGCGCCUGCGCCGAUGCAGGUGUAGAGACUAGACGGCACCCACCUAAGGCAAACGCUAUGGUGAAGGCAUAGUCUAGGGAGUGGCGAAAGUCACACAAACCGG [C82A A111C C169U],0.0139
8,GUGCCUUGCGCCGGGAAACCACGCAAGGGAUGGUGUCAAAUUCGGCGAAACCUAAGCGCCCGCCCGGGCGUAUGGCAACGCAGAGCCAAGCUUCGGCGCCUGCGCCGAUGGAGGUGUAGCGACUAGACGGCACCCACCUAAGGCAAACGCUAUGGUGAAGGCAUAGUCCAGGGAGUGGCGAAAGUCACACAAACCGG [C82A A111G A120C],0.0449
9,GUGCCUUGCGCCGGGAAACCACGCAAGGGAUGGUGUCAAAUUCGGCGAAACCUAAGCGCCCGCCCGGGCGUAUGGCAACGCAGAGCCAAGCUUCGGCGCCUGCGCCGAUGGAGGUGUAGCGACUAGACGGCACCCACCUAAGGCCAACGAUAUGGUGAAGGCAUAGUCCAGGGAGUGGCGAAAGUCACACAAACCGG [C82A A111G A120C A145C C150A],0.00953
10,GUGCCUUGCGCCGGGAAACCACGCAAGGGAUGGUGUCAAAUUCGGCGAAACCUAAGCGCCCGCCCGGGCGUAUGGCAACGCAGAGCCAAGCUUCGGCGCCUGCGCCGAUGCAGGUGUAGAGACUAGACGGCACCCACCUAAGGCAAACGCUAUGGUGAAGGCAUAGUCCAGGGAGGGGCGAAAGUCACACAAACCGG [C82A A111C U176G],0.0172
11,GUGCCUUGCGCCGGGAAACCACGCAAGGGAUGGUGUCAAAUUCGGCGAAACCUAAGCGCCCGCCCGGGCGUAUGGCAACGCAGAGCCAAGCUUCGGCGCCUGCGCCGAUGCAGGUGUAGAGACUAGACGGCACCCACCUAAGGCAAACGCUAUGGUGAAGGCAUAGUCCAGGGAGCGGCGAAAGUCACACAAACCGG [C82A A111C U176C],0.102
12,GUGCCUUGCGCCGGGAAACCACGCAAGGGAUGGUGUCAAAUUCGGCGAAACCUAAGCGCCCGCCCGGGCGUAUGGCAACGCAGAGCCAAGCUUCGGCGCCUGCGCCGAUGCAGGUGUAGAGACUAGACGGCACCCACCUAAGGCAAACGCUAUGGUGAAGGCAUAGUCCAGGGAGAGGCGAAAGUCACACAAACCGG [C82A A111C U176A],0.0824
13,GUGCCUUGCGCCGGGAAACCACGCAAGGGAUGGUGUCAAAUUCGGCGAAACCUAAGCGCCCGCCCGGGCGUAUGGCAACGCAGAGCCAAGCUUCGGCGCCUGCGCCGAUGCAGGUGUAGAGACUAGACGGCACCCACCUAAGGCAAACGCUAUGGUGAAGGCAUAGUCGAGGGAGCGGCGAAAGUCACACAAACCGG [C82A A111C C169G U176C],0.0237
14,GUGCCUUGCGCCGGGAAACCACGCAAGGGAUGGUGUCAAAUUCGGCGAAACCUAAGCGCCCGCCCGGGCGUAUGGCAACGCAGAGCCAAGCUUCGGCGCCUGCGCCGAUGCAGGUGUAGAGACUAGACGGCACCCACCUAAGGCAAACGCUAUGGUGAAGGCAUAGUCGAGGGAGAGGCGAAAGUCACACAAACCGG [C82A A111C C169G U176A],0.0177
15,GUGCCUUGCGCCGGGAAACCACGCAAGGGAUGGUGUCAAAUUCGGCGAAACCUAAGCGCCCGCCCGGGCGUAUGGCAACGCAGAGCCAAGCUUCGGCGCCUGCGCCGAUGCAGGUGUAGAGACUAGACGGCACCCACCUAAGGCAAACGCUAUGGUGAAGGCAUAGUCGAGGGAGGGGCGAAAGUCACACAAACCGG [C82A A111C C169G U176G],0.00734
